# Data published in article PMC9706920, “Aryloxypropanolamine targets amyloid aggregates and reverses Alzheimer-like phenotypes in Alzheimer mouse models” (Alzheimer's Research & Therapy, 2022).
# Biological target: T1, Flamma 552-conjugated Aβ(1–42) (Flamma 552 dye conjugated (position not given))
# T1 construct: numbers count on: the Aβ peptide; also called Flamma 552-labeled Aβ(1–42); monomeric Aβ(1–42) labeled with fluorescent dye Flamma 552
# Test: peptide or protein array; Aβ hexapeptides and full-length Aβ(1–42), each with a C-terminal cysteine, immobilised on maleimide-activated microplates (50 μg/mL, binding buffer 0.1 M sodium phosphate, 0.15 M NaCl, 10 mM EDTA, pH 7.2); Flamma 552-Aβ(1–42) 10 μM in deionized water (10% DMSO), 37°C, 2 h; fluorescence 555/580 nm as baseline before YIAD002
# Conditions: both partners purified
row,binding result,Binder
1,binds,"KLVFFAC (C-terminal cysteine coupled to the maleimide-activated microplate, amyloid-β residues 16-21; numbers count on: the Aβ peptide; cysteine residue at the C-terminal, told in words, for immobilisation; source: synthetic peptide (Fmoc solid phase peptide synthesis)) [Aβ(16–21) fragment KLVFFA with a cysteine residue at the C-terminal]"
2,binds,"IGLMVGC (C-terminal cysteine coupled to the maleimide-activated microplate, amyloid-β residues 32-37; numbers count on: the Aβ peptide; cysteine residue at the C-terminal, told in words, for immobilisation; source: synthetic peptide (Fmoc solid phase peptide synthesis)) [Aβ(32–37) fragment IGLMVG with a cysteine residue at the C-terminal]"
